Molecular target: the molecule itself
Assay: native gel or EMSA; NativePAGE (Invitrogen) of the synthetic Aβ1-42 preparation, detected with antibody 4G8; guanidine hydrochloride (1:1) used to break down oligomers

B1: synthetic rat Aβ1-42 peptide (peptide, UniProt P08592 672-713, looked up)
peptide: DAEFGHDSGFEVRHQKLVFFAEDVGSNKGAIIGLMVGGVVIA
notes: amyloid-beta 1-42, cut product of the amyloid precursor protein (APP), rat; Oligomer preparation: 100 uM stock in 200 mM HEPES pH 8.5, agitated for 30 min at room temperature; also called amyloid-β 1-42; rodent Aβ_(1-42); source: synthetic peptide; bought: Calbiochem
B1: binds.
